{
  "source": "patent US20250002945",
  "about": "“NEW TALE PROTEIN SCAFFOLDS WITH IMPROVED ON-TARGET/OFF-TARGET ACTIVITY RATIOS” (CELLECTIS SA, published 2025)",
  "binders": {"B1": {"name": "CISH (3) right half-site (dsDNA)", "DNA 1": "GAGGGTACCCCAGCCCA", "DNA 2": "TGGGCTGGGGTACCCTC"}, "B2": {"name": "IgH (1) right half-site (dsDNA)", "DNA 1": "AGCTCAGCTAAGAAATA", "DNA 2": "TATTTCTTAGCTGAGCT"}, "B3": {"name": "CD38 (1) right half-site (dsDNA)", "DNA 1": "AAGTACACTGAAATTCA", "DNA 2": "TGAATTTCAGTGTACTT"}, "B4": {"name": "IgH (1) left half-site (dsDNA)", "DNA 1": "TGATATGTGTCTGGAAT", "DNA 2": "ATTCCAGACACATATCA"}, "B5": {"name": "CD38 (2) left half-site (dsDNA)", "DNA 1": "TGGAGCCCTATGGCCAA", "DNA 2": "TTGGCCATAGGGCTCCA"}, "B6": {"name": "CD38 (1) left half-site (dsDNA)", "DNA 1": "TTTCCCGAGACCGTCCT", "DNA 2": "AGGACGGTCTCGGGAAA"}, "B7": {"name": "CD38 (2) right half-site (dsDNA)", "DNA 1": "CCGGTGTCCGGGGACAA", "DNA 2": "TTGTCCCCGGACACCGG"}},
  "assay_in_all_cases": "cell_activity; T cells, mostly above 70%",
  "settings_in_all_cases": "tags: SV40 NLS; FokI fusion",
  "key": {"CISH (3) right V2 TALEN": {"molecular_target": "T1, CISH (3) right V2 TALEN (synthetic, UniProt Q56830 SEQ:15-719)", "T1 chain": "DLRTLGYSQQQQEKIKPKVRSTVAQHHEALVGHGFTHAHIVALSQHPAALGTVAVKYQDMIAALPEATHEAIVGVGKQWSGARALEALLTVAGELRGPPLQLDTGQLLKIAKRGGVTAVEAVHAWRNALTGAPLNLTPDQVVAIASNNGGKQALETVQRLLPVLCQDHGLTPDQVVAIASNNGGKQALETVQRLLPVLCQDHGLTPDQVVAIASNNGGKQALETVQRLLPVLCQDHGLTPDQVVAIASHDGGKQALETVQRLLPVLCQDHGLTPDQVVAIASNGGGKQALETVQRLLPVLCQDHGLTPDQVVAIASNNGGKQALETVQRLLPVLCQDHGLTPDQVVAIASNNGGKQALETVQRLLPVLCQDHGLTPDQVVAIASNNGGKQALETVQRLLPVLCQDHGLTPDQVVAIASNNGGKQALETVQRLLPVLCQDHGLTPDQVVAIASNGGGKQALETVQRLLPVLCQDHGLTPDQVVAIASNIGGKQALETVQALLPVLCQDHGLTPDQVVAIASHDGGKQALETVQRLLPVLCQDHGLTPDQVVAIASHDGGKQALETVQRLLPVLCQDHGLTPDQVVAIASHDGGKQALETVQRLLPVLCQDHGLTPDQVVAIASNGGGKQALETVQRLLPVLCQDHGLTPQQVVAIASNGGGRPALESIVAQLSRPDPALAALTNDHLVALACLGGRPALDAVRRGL"}, "IgH (1) right V2 TALEN": {"molecular_target": "T2, IgH (1) right V2 TALEN (synthetic, UniProt Q56830 SEQ:15-719)", "T2 chain": "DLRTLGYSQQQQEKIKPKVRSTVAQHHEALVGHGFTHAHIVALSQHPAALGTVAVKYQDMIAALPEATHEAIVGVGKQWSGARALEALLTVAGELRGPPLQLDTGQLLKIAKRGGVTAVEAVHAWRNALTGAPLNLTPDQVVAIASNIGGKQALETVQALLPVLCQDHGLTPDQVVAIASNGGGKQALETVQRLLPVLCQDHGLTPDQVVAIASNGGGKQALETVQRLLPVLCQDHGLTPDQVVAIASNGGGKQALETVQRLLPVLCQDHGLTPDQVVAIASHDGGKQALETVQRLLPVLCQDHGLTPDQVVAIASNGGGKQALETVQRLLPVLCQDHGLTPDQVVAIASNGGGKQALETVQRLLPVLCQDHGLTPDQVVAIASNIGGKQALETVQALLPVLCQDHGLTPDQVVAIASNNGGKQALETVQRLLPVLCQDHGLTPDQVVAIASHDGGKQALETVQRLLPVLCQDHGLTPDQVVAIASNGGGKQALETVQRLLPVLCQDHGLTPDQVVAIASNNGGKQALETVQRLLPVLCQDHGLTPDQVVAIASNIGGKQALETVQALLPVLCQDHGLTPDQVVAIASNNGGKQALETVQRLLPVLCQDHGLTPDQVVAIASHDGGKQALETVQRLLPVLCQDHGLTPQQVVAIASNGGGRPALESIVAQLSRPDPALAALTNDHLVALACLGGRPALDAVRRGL"}, "CD38 (1) right V2 TALEN": {"molecular_target": "T3, CD38 (1) right V2 TALEN (synthetic, UniProt Q56830 SEQ:15-719)", "T3 chain": "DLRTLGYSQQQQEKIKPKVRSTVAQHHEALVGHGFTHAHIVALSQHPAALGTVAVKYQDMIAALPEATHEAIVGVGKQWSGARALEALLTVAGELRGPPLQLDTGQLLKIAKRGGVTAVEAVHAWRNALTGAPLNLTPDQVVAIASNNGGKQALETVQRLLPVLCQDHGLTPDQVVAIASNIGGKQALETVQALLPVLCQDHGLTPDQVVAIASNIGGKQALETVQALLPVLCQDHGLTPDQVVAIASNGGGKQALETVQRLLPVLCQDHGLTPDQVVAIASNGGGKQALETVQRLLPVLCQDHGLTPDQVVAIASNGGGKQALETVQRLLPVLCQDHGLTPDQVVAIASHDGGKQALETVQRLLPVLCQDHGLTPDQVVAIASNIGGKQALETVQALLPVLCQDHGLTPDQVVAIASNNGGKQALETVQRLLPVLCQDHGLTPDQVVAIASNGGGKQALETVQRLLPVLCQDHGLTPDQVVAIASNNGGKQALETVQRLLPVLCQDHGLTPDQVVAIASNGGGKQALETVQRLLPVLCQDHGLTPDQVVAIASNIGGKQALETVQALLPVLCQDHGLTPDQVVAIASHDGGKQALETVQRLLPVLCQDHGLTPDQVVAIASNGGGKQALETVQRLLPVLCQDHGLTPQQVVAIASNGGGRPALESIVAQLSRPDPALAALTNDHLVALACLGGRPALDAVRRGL"}, "IgH (1) left V2 TALEN": {"molecular_target": "T4, IgH (1) left V2 TALEN (synthetic, UniProt Q56830 SEQ:15-719)", "T4 chain": "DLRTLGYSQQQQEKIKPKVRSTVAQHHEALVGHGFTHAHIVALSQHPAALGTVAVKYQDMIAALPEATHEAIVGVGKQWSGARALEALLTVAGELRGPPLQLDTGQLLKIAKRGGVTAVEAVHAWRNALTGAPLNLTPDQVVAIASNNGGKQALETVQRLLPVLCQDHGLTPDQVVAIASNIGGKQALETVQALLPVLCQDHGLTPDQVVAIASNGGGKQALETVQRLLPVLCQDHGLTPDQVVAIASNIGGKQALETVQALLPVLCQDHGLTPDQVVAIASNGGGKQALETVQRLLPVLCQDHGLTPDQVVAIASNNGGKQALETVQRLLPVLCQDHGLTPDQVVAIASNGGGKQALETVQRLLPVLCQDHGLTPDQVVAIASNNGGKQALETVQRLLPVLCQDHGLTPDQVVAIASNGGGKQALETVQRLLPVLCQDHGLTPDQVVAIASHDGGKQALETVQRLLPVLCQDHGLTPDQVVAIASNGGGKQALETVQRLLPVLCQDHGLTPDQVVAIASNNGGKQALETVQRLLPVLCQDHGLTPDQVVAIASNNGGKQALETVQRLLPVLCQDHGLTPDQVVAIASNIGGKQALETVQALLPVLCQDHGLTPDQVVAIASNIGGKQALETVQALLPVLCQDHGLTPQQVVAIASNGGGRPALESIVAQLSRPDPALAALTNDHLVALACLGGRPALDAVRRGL"}, "CD38 (2) left V2 TALEN": {"molecular_target": "T5, CD38 (2) left V2 TALEN (synthetic, UniProt Q56830 SEQ:15-719)", "T5 chain": "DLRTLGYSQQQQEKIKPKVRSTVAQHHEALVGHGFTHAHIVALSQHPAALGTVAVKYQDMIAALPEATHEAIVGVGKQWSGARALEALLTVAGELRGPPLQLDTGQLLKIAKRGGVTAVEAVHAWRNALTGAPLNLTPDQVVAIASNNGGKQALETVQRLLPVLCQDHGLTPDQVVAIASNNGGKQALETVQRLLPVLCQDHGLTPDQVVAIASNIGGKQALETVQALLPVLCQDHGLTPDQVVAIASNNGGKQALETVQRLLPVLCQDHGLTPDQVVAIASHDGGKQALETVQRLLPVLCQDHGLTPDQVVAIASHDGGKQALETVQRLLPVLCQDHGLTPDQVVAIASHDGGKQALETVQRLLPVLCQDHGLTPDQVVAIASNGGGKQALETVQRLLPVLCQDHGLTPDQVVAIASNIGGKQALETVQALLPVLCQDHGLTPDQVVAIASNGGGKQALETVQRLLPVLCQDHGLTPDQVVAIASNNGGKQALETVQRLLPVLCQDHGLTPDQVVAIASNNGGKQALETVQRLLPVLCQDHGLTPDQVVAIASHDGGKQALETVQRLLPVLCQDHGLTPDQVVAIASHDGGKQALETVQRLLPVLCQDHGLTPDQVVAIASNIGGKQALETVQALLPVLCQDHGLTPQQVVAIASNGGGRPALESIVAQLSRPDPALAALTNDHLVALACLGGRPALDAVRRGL"}, "CD38 (1) left V2 TALEN": {"molecular_target": "T6, CD38 (1) left V2 TALEN (synthetic, UniProt Q56830 SEQ:15-719)", "T6 chain": "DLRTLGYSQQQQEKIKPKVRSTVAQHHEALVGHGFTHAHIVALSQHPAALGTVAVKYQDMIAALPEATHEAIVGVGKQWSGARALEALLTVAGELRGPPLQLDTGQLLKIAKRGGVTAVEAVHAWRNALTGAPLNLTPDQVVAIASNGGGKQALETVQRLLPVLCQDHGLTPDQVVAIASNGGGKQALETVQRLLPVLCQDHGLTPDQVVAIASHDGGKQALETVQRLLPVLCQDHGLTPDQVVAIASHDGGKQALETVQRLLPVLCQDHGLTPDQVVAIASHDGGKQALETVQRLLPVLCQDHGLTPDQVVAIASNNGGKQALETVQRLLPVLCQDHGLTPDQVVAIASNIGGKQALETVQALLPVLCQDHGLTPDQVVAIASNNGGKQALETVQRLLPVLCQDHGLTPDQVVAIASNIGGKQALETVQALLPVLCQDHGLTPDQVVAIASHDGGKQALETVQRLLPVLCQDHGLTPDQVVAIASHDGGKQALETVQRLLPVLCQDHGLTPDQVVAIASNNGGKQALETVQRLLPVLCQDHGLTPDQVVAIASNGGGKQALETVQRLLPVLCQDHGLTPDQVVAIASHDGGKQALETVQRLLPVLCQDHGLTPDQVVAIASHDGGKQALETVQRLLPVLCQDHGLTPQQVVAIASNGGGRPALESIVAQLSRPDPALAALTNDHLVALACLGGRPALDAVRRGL"}, "CD38 (2) right V2 TALEN": {"molecular_target": "T7, CD38 (2) right V2 TALEN (synthetic, UniProt Q56830 SEQ:15-719)", "T7 chain": "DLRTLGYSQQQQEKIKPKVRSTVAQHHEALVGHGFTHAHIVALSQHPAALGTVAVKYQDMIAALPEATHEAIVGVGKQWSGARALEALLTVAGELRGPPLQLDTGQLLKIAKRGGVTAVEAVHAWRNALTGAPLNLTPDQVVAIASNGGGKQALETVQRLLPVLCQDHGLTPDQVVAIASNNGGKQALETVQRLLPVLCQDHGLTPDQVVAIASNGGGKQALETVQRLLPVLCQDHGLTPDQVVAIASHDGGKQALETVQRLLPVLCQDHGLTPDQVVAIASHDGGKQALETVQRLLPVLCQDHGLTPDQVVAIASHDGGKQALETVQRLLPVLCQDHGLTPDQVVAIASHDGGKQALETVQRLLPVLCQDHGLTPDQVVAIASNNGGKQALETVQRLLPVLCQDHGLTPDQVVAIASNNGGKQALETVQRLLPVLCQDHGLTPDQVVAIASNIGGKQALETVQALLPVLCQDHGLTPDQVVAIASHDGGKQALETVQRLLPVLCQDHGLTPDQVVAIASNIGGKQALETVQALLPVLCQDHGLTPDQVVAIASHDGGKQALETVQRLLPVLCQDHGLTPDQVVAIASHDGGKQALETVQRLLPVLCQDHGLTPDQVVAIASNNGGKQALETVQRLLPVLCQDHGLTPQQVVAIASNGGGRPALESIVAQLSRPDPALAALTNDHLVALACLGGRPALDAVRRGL"}},
  "data": [
    {"binder": "B1", "values": [
      {"measurement": "activity", "setting": "CISH (3) right V2 TALEN", "result": "> 50", "unit": "% indels"}
    ]},
    {"binder": "B2", "values": [
      {"measurement": "activity", "setting": "IgH (1) right V2 TALEN", "result": "> 50", "unit": "% indels"}
    ]},
    {"binder": "B3", "values": [
      {"measurement": "activity", "setting": "CD38 (1) right V2 TALEN", "result": "> 50", "unit": "% indels"}
    ]},
    {"binder": "B4", "values": [
      {"measurement": "activity", "setting": "IgH (1) left V2 TALEN", "result": "> 50", "unit": "% indels"}
    ]},
    {"binder": "B5", "values": [
      {"measurement": "activity", "setting": "CD38 (2) left V2 TALEN", "result": "> 50", "unit": "% indels"}
    ]},
    {"binder": "B6", "values": [
      {"measurement": "activity", "setting": "CD38 (1) left V2 TALEN", "result": "> 50", "unit": "% indels"}
    ]},
    {"binder": "B7", "values": [
      {"measurement": "activity", "setting": "CD38 (2) right V2 TALEN", "result": "> 50", "unit": "% indels"}
    ]}
  ]
}
